Data on 4 molecules can be found in article PMC9858708, “Genetic and Molecular Interactions between H^ΔCT, a Novel Allele of the Notch Antagonist Hairless, and the Histone Chaperone Asf1 in Drosophila melanogaster” (Genes, 2023).

Common to all, as to conditions: both partners purified
Assay [1] concerns the target T1, Asf1-HA-MBP (full-length Drosophila Asf1) (Drosophila melanogaster, UniProt Q9V464 1-218).
T1 construct: Anti-silencing factor 1 (Asf1), Drosophila melanogaster, full length; HA-tagged region derived by PCR from the pJG4-5 construct; also called Asf-HA; HA-tagged Asf1; source: E. coli UT580, purified (amylose beads); not shown: HA, N-terminal, kept
T1 sequence (looked up): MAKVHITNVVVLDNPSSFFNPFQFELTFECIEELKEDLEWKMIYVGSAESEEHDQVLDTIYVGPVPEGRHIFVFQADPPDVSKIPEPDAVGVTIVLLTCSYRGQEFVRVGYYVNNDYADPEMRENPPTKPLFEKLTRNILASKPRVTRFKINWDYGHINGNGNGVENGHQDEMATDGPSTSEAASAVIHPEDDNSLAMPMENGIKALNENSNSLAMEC
Description: co-IP; Myc-trap: purified Asf1-HA-MBP or Su(H)-GST mixed 1:1 with NTCTmyc-MBP peptides, about 10 min at 4 °C, 150 mM NaCl, 50 mM Tris pH7.5, 0.1% SDS; Myc-tagged H peptides trapped on anti-Myc nanobody magnetic beads 1 h at 4 °C; Western blot with anti-Myc, anti-HA, anti-GST. Background: A western blot detects proteins with antibodies after separation by electrophoresis.

The target of assay [2] is T2, Asf1 (1–154) (D. melanogaster, UniProt Q9V464 1-154).
T2 construct: Anti-silencing factor 1 (Asf1), D. melanogaster, amino acids 1-154; modified pET-14p construct
T2 sequence (looked up): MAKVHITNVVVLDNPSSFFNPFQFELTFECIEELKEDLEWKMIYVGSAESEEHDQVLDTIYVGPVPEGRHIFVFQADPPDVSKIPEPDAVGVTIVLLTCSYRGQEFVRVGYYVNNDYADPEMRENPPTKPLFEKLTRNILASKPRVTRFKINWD
Description: ITC; MicroCal VP-ITC, 25 °C, 20 mM HEPES pH 7.5, 150 mM NaCl; typically 100 μM Hairless in the syringe and 10 μM Asf1 in the cell; one-site binding model. Background: Isothermal titration calorimetry measures the heat released or taken up as one component is titrated into another.

Assay [3] deals with T2, Asf1 (1–154). The description is as above. The source holds these as a separate data set.
Assay [4] concerns the target T3, Su(H)-GST fusion protein (Su(H) codons 288–594) (Drosophila melanogaster, UniProt P28159 288-594).
T3 construct: also called GST Su(H); GST-tagged Su(H); source: E. coli UT580, purified (glutathione-sepharose 4B)
The assay can be described thus: co-IP; Myc-trap: purified Asf1-HA-MBP or Su(H)-GST mixed 1:1 with NTCTmyc-MBP peptides, about 10 min at 4 °C, 150 mM NaCl, 50 mM Tris pH7.5, 0.1% SDS; Myc-tagged H peptides trapped on anti-Myc nanobody magnetic beads 1 h at 4 °C; Western blot with anti-Myc, anti-HA, anti-GST.

T3 sequence (P28159 288-594): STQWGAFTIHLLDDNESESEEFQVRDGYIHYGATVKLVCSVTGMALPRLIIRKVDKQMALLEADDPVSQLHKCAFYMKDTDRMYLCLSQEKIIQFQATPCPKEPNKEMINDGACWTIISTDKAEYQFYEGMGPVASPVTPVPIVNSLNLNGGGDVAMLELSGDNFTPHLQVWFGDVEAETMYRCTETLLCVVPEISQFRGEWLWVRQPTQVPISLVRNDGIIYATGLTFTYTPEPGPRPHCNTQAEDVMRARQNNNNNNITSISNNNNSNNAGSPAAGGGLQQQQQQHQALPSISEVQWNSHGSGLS

B1: Hairless 315–369 myc-MBP (domain or fragment, Drosophila melanogaster, UniProt Q02308 315-369, looked up)
chain: PWKQSRPRRGISKELSLFFHRPRNSTLGRAALRTAARKRRRPHEPLTTSEDQQPI
notes: Hairless (H), Drosophila melanogaster, residues 315-369; also called aa 315–369; source: E. coli UT580, purified (amylose beads); not shown: Myc, N-terminal, kept
As to B1, the binding result in assay [1] is listed as “binds”.

B2: H (315–358) (domain or fragment, Drosophila melanogaster, UniProt Q02308 315-358, looked up)
chain: PWKQSRPRRGISKELSLFFHRPRNSTLGRAALRTAARKRRRPHE
notes: Hairless (H), Drosophila, residues 315-358; His-SUMO fusion from a modified pET-28b+ vector; also called Hairless 315–358
In the assay with Asf1 (1–154) [2], B2 displayed a Ka of 680000 M⁻¹, a Kd of 1700 nM and a dH of -8.7 kcal/mol.

B3: H (232–358) (domain or fragment, Drosophila melanogaster, UniProt Q02308 232-358, looked up)
chain: GGRLQFFKDGKFILELARSKDGDKSGWVSVTRKTFRPPSAATSATVTPTSAVTTAYPKNENSTSLSFSDDNSSIQSSPWQRDQPWKQSRPRRGISKELSLFFHRPRNSTLGRAALRTAARKRRRPHE
notes: Hairless (H), Drosophila, residues 232-358; His-SUMO fusion from a modified pET-28b+ vector; also called Hairless 232–358
Regarding B3, in the assay with Asf1 (1–154) [2], the Ka was determined as 250000 M⁻¹, the Kd was 4200 nM and the dH is -8.6 kcal/mol. Also, the “stoichiometry N” value with Asf1 (1–154) [3] was found to be 1.

B4: NTCTmyc-MBP (Hairless Ser 212 - Ile 369) (domain or fragment, Drosophila melanogaster, UniProt Q02308 212-369, looked up)
chain: SFDMGRTPISTHGNNSWGGYGGRLQFFKDGKFILELARSKDGDKSGWVSVTRKTFRPPSAATSATVTPTSAVTTAYPKNENSTSLSFSDDNSSIQSSPWQRDQPWKQSRPRRGISKELSLFFHRPRNSTLGRAALRTAARKRRRPHEPLTTSEDQQPI
notes: Hairless (H), Drosophila melanogaster, NTCT region Ser 212 - Ile 369; source: E. coli UT580, purified (amylose beads); not shown: Myc, N-terminal, kept
With B4, the binding result in assay [4] and in assay [1] was “binds” throughout.

One may read the Kd as the concentration at which binding is half-saturated. A word on the stoichiometry N: it is a count of units in the complex or per binding partner.
